# Where a chain is given by its changes, count along the chain named.
# B1: AT10_004 mutant C (antibody, V domains shown)
# VH: QVQLVQSGAEVRKPGASVKVSCKASGYTFTRHGISWVRQAPGQGLEWMGWISAYTGDTDYAQKFQGRVTMTTDTSTNTAYMELRSLRSDDAAVYYCARLRLQGEVVVPPSQSNWFDPWGQGTLVTVSS
# VL: EIVLTQSPATLSLYPGERATLSCRASQSVSRFLAWYQQKPGQAPRLLIYDASNRATGIPARFSGSGSGTDFTLTISSLEPEDFAVYYCQQRYNWLKITFGQGTRLEIKG
# B2: AT10_004 mutant B (antibody, V domains shown)
# VH: B1 VH
# VL: B1 VL with F32Y
# Target: recombinant influenza HA3-protein (from H3N2, Wyoming, March 2003, Sino Biological Inc.) (Influenza virus H3N2 (Wyoming, March 2003))
# Assay: SPR imaging (IBIS MX96), antibody captured on anti-human-IgG chip, HA3 1 ug/ml; global 1:1 fit in Scrubber2
Binder,Kd [nM],koff [s⁻¹],kon [M⁻¹ s⁻¹]
B1,0.06,1e-06,17000
B2,0.05,1e-06,19000

# From patent US9969795
